± gives the half width of the 95% confidence interval.
Assays:
[1] = folding stability dG unfold from chymotrypsin proteolysis; higher = more stable
In short: (§1)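 Unfolding free energy was derived, per protease or combined, by relating Bayesian-fitted K50 values from sequencing counts to a sequence-predicted unfolded-state K50 and a shared folded-state K50. The underlying digests exposed cysteine-free mini-proteins under 80 residues, in a PA-tagged cDNA display construct, to trypsin and chymotrypsin at 11 threefold-diluted concentrations and to a no-protease condition. A filter kept only designs with AlphaFold2 dimer inter-PAE above 15.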

[2] = folding stability dG unfold (combined trypsin and chymotrypsin); higher = more stable
In short: as §1

[3] = folding stability dG unfold from trypsin proteolysis; higher = more stable
In short: as §1

Row | Sequence | folding stability dG unfold [1] | folding stability dG unfold [2] | folding stability dG unfold [3]
1 | SAGGSAWMTLEEFIKEAAKNFPPGREKEIWIRHPGYVFKIDIRVTGPGQVKIKIDKIVPFPDGEPISAGGSA [r15_150_TrROS] | 2.88 ± 0.046 kcal/mol | 2.55 ± 0.11 kcal/mol | 2.12 ± 0.067 kcal/mol
2 | SAGGSDKLYIRNPDHTIEIDEVKEPPDGEKYVRIRHEPPDGKEKEHEFPPDELADKFGLPPDNIEISAGGSA [r2_262_TrROS] | -0.217 ± 0.79 kcal/mol | -0.101 ± 0.56 kcal/mol | 0.32 ± 0.35 kcal/mol
3 | SAGGSDNKPFRIEPTGVDSVEANPDGMVEIEWRFRLPNGYVLTWRETINPKNGKPSIEPTLVPPGESAGGSA [r2_321_TrROS] | 0.722 ± 0.18 kcal/mol | 0.902 ± 0.085 kcal/mol | 0.816 ± 0.079 kcal/mol
4 | SAGGSDSLVTLERVEVTELEEFEEDDRPFLVKRTYTIEKVVTTDPKTGKVTTETTVTSKEEVIPPELNSAGG [r13_810_JUSTAS] | 0.801 ± 0.18 kcal/mol | 0.874 ± 0.084 kcal/mol | 0.807 ± 0.031 kcal/mol
5 | SAGGSDVKTYTFVGIDPETGELVETTFRVTPLVPPVPVSVSVSLTLDVDPDGNLHLSLSVSVELGGSAGGSA [r2_326_TrMRF] | 4.74 ± 0.081 kcal/mol | 4.37 ± 0.12 kcal/mol | 3.21 ± 0.11 kcal/mol
6 | SAGGSEAEIVSVEFDEETGTISVLVRNSDGSLYRAEIRFERLPDGSLLVTIKVTLPDGKELTFVFPSAGGSA [r2_488_TrROS_Hall] | 5.77 ± 0.085 kcal/mol | 5.78 ± 0.19 kcal/mol | 3.94 ± 0.11 kcal/mol
7 | SAGGSEGMTVTELVKPPDSDEVLYVATDSAGNTFTLPGSLVKEALENGKTVEAPRPDGTAATLVLRSAGGSA [r2_301_JUSTAS] | 3.5 ± 0.2 kcal/mol | 3.1 ± 0.34 kcal/mol | 2.25 ± 0.4 kcal/mol
8 | SAGGSEILKKLFPNVKKIEIEVEEVEVKYSEEEKKANPNKKVKVEVKVKVKIKIKIELEFDKNGKLSAGGSA [r2_404_TrROS_Hall] | 1.92 ± 0.19 kcal/mol | 3.09 ± 0.61 kcal/mol | 3.64 ± 0.19 kcal/mol
9 | SAGGSEIRVEYDPSTGELRVLIVLPDGSVILKTVRVEPIDPGIAPDGSPIGAAVSISVEIVPPGELSAGGSA [r2_195_TrMRF] | 3.5 ± 0.037 kcal/mol | 3.39 ± 0.087 kcal/mol | 3.23 ± 0.1 kcal/mol
10 | SAGGSEKKVLVLKFRHPENDKPLFSVRIVLEKPPEDSYKAKIELLDLPEDYVLSPEAIKAILEALKSAGGSA [r2_7_TrMRF] | 2.58 ± 0.11 kcal/mol | 2.3 ± 0.11 kcal/mol | 2.05 ± 0.036 kcal/mol
11 | SAGGSELENMSLEELLARAEELARELAEETGRTVTVTVEVRVRLPDGSTRTFRFTVTLTVLREEDLSAGGSA [r2_157_TrROS_Hall] | 4.739 ± 0.04 kcal/mol | 4.519 ± 0.041 kcal/mol | 3.93 ± 0.12 kcal/mol
12 | SAGGSETVRVEVEVELENGYRVRVEMEFDLETKEMTMRVEVEPVLELSPEELEKLKKLLEELGIEVSAGGSA [r2_304_TrROS_Hall] | 3.43 ± 0.11 kcal/mol | 3.12 ± 0.17 kcal/mol | 2.91 ± 0.27 kcal/mol
13 | SAGGSEVKIVKIESVEIEEENGFLRIKVRATLKFYDKETGELVEEKEVELEVTLKNGKKLTFKIKASAGGSA [r2_271_TrROS_Hall] | 3.12 ± 0.086 kcal/mol | 3.12 ± 0.58 kcal/mol | 3 ± 0.23 kcal/mol
14 | SAGGSFGIEIEFHGNGFVIEMFNPETDTINTMRFKFDPDGQFTEMEMETIPIPPPPPPEKDENGKESAGGSA [r2_375_TrROS] | 3.16 ± 0.12 kcal/mol | 2.94 ± 0.19 kcal/mol | 2.27 ± 0.16 kcal/mol
15 | SAGGSFIKITTKLPNRKIEIPIPDAEIEVEGNTVTITFPPGNAEEVKKAVLEASDEVEITEVKIIDESAGGS [r8_490_JUSTAS] | 0.871 ± 0.026 kcal/mol | 0.557 ± 0.087 kcal/mol | -0.107 ± 0.04 kcal/mol
16 | SAGGSFLVPTSSMEEAEEIKNAVLAGEPVTVTPPDGVPVTVKAKSVEVDPETGKVRIIDPSGEKLALSAGGS [r16_254_JUSTAS] | 0.414 ± 0.095 kcal/mol | 0.379 ± 0.1 kcal/mol | 0.201 ± 0.14 kcal/mol

Row | Sequence | folding stability dG unfold [1] | folding stability dG unfold [2] | folding stability dG unfold [3]
17 | SAGGSFWVFVIEISVKFEQYGDPDGNWKFEIEKVDVKITEIIPIPPEMMDKLREAKAEGMEPEEILSAGGSA [r2_327_TrROS] | 3.49 ± 0.11 kcal/mol | 3.09 ± 0.39 kcal/mol | 1.65 ± 0.15 kcal/mol
18 | SAGGSGDPNAAPVVVKVTIDITRPTADDSYVTSPVELTLLESEVDEFLAELEKEPDLELKVEVTLESAGGSA [r2_270_JUSTAS] | 1.25 ± 0.026 kcal/mol | 1.07 ± 0.11 kcal/mol | 0.829 ± 0.063 kcal/mol
19 | SAGGSGKKVKIKINIVVVFPPGDPDLAKEIAKWFARTIARELQAQGFEDIKDIEIRVHVIPPNQPGFSAGGS [r16_289_TrROS] | 3.604 ± 0.035 kcal/mol | 3.44 ± 0.12 kcal/mol | 3.11 ± 0.094 kcal/mol
20 | SAGGSGKVIEIPIELPEDKTITLRLDPETGKAVVEAEENVPLEKVIEAAKKIFEENGFELNGLDISSAGGSA [r2_497_TrMRF] | 0.725 ± 0.092 kcal/mol | 0.782 ± 0.12 kcal/mol | 0.788 ± 0.032 kcal/mol
21 | SAGGSGKVIGFSFEVETPEEAEGLFKENRPDLDVKILEVKPEEGYVRLVAVDPDGKPHVFVVPIVGSAGGSA [r2_201_TrMRF] | 1.34 ± 0.1 kcal/mol | 1.11 ± 0.091 kcal/mol | 0.743 ± 0.055 kcal/mol
22 | SAGGSGMEKYTVTIDLKFYTPETGKTYTKTVTLTTTSIEEAIKAITEKLTPPDMKIEITSITVTPSSAGGSA [r2_320_JUSTAS] | 4.62 ± 0.11 kcal/mol | 4.62 ± 0.13 kcal/mol | 4.34 ± 0.25 kcal/mol
23 | SAGGSGMIPVTVDFPPDVSEEEIKAYVEELEKKGYKVLKVEITTEKDAKGNTLRTVTVVLAPPSLLSAGGSA [r2_442_JUSTAS] | 3.143 ± 0.02 kcal/mol | 3.15 ± 0.048 kcal/mol | 3.14 ± 0.048 kcal/mol
24 | SAGGSGMTVEVSVDPSTGTIRIKIKYGDKEYEVTAPVTRLPDGTYAVELKISAPNGPLLETKEITLPLSAGG [r13_59_JUSTAS] | 1.76 ± 0.024 kcal/mol | 2.06 ± 0.087 kcal/mol | 2.46 ± 0.086 kcal/mol
25 | SAGGSGMVRQEHEYRGPNGWHMRSEMYYSPENGMMNMEMEWVPVIKLPEDDPAKLKKLLAKEGIPISAGGSA [r2_304_TrROS] | 1.19 ± 0.099 kcal/mol | 0.803 ± 0.17 kcal/mol | 0.119 ± 0.16 kcal/mol
26 | SAGGSGPLLERALEEIREALAKAKEGEEVEIEVKVTVTGPDGRTREFTFRIRFVVKDGKIVKVEIESAGGSA [r2_173_TrROS_Hall] | 4.94 ± 0.085 kcal/mol | 4.66 ± 0.14 kcal/mol | 3.74 ± 0.22 kcal/mol
27 | SAGGSGPMTRSITITVTPEIVRDEKGNVTATKYTVTITRSPEVSPEEVEALAAELNAAGIPTTVTPSAGGSA [r2_456_JUSTAS] | 1.65 ± 0.099 kcal/mol | 1.5 ± 0.083 kcal/mol | 1.23 ± 0.026 kcal/mol
28 | SAGGSGRQMVRNIVRHALDQQQQHGKPIDKIYIFGPPNMRKEIKKELEEEGLPPGVKITIVPAEDMQSAGGS [r16_164_TrROS] | 0.101 ± 0.51 kcal/mol | 0.326 ± 0.37 kcal/mol | 0.761 ± 0.13 kcal/mol
29 | SAGGSGSQEVDIDFKFPPNFNMDELAKKIEELPGIDIKPDRYDPENGTYKITINVNDPQAVREIIRSAGGSA [r2_305_TrROS] | -0.497 ± 0.69 kcal/mol | -0.483 ± 0.5 kcal/mol | 0.0473 ± 0.16 kcal/mol
30 | SAGGSGTESKEYPDSKVTVTPVPLPLGDGAPVLRVTTVPKLPNGEPVTTVTLVDPDSDVVVTEETLSAGGSA [r2_484_JUSTAS] | 0.925 ± 0.012 kcal/mol | 0.598 ± 0.044 kcal/mol | -0.0208 ± 0.028 kcal/mol
31 | SAGGSIEEAKKAAEKLAKEIAEKKGWTVKSVEVEKLPDGTVRATITIKYPDGSEETIEVTIPPNTPLSAGGS [r8_175_JUSTAS] | 0.954 ± 0.039 kcal/mol | 1.91 ± 0.14 kcal/mol | 2.63 ± 0.11 kcal/mol

— the supplement of paper PMC12764529
